B1: M4B06 IgG (antibody, V domains shown)
VH: EVQLLESGGGFVQPGGSLRLSCVVTGFTFSNYAMCWVRQAPGKGPEWVSGIGGSVGTTYYADSVKGRFTISRDNSKNTLYLQMSGLRAEDTARYYCAKVPSFFVFEDGFDMWGQGTVVTVSS
VL: QSVLTQPPSASGNPGQRVTISCYGSGSNIGNNYVHWFRQLPGTAPRLLIYNTDILVPGVPDRFSGSESGTSASLAISGLQSGDEADYFCAAWDDTLNGYVFGPGTTVTVL
B2: M4B06 Fab (Fab, V domains shown)
VH: B1 VH
VL: B1 VL
notes: as the heavy chain of m4 before CDR3 (germline IGHV3-23*01); heavy chain CDR3; rest of VH after CDR3 and CH1 of the Fab; as the light chain of m4 before CDR3 (germline IGLV1-44*01); light chain CDR3; as the light chain of m4 after CDR3; The Fab was not built in the cryo-EM density map; also called M4B06 monovalent Fab; source: recombinantly purified

Columns and labels:
[1] = target: unprocessed hMPV PreF trimer (wild-type hMPV F ectodomain trimer, strain B2, C-terminal GCN4 trimerization … (Human metapneumovirus, subgroup B2 …, UniProt Q6W8S4, strain)); assay: cell-based or functional assay
[2] = target: T1, processed stabilized hMPV PreF trimer (115BV), co-expressed with furin (Human metapneumovirus, subgroup B2 …, UniProt Q6W8S4, stabilised); assay: cryo-EM structure; M4B06 Fab incubated with processed PreF (115BV) trimer (trimer:Fab = 1:3) for 1 h at 4 °C, purified on Superdex 200 Increase in 25 mM HEPES pH 7.5, 150 mM NaCl; map at 3.75 Å, no symmetry imposed; Fab not built; conditions: both partners purified
T1 construct: F2 chain of the fusion (F) glycoprotein of human metapneumovirus, strain B2, after cleavage by co-expressed furin; disulfide-linked to F1; F1 chain (ectodomain part) of the fusion (F) glycoprotein of human metapneumovirus, strain B2, after cleavage by co-expressed furin; also called processed PreF; prefusion-stabilized hMPV F trimer 115BV; source: Expi293, co-transfected with furin at 1:1, …

Row | Binder | neutralization IC50, hMPV A virus (plaque reduction neutralization assay) [1] [ng/mL] | neutralization IC50, hMPV B virus (plaque reduction neutralization assay) [1] [ng/mL] | stoichiometry N [2] [Fabs per PreF trimer]
1 | B1 | 3.5 | 2.2 | –
2 | B2 | – | – | 3
